Legend:
ADI-22523 IgG = molecular target: T1, ADI-22523 IgG; test: BLI; tip anti-ID IgG, solution ADI-22523 IgG
T1 construct: anti-CD3 IgG
Procedure: (§1) ForteBio affinity measurements were performed generally as previously described (Estep et al., MAbs. 2013 5(2):270-8). Briefly, ForteBio affinity measurements were performed by loading antibody IgG or Fabs on-line onto AHC sensors. Sensors were equilibrated off-line in assay buffer for 30 minutes and then monitored on-line for 60 seconds for baseline establishment. For avid binding measurement, sensors with loaded antibodies were exposed to IgG or Fab solutions for 3 minutes, afterwards they were transferred to assay buffer for 3 minutes for off-rate measurement. Kinetics data were fit using a 1:1 binding model in the data analysis software provided by ForteBio to obtain equilibrium dissociation constant (KD=koff/kₒₙ) values. In each column, tip-immobilized antibodies are listed first and solution antibodies second.

ADI-22523 Fab = molecular target: T2, ADI-22523 Fab; test: BLI; tip anti-ID IgG, solution ADI-22523 Fab
T2 construct: anti-CD3 Fab by papain digestion of the IgG
T2 sequence (VH, as listed by the source limits assumed, chain 1 of 2): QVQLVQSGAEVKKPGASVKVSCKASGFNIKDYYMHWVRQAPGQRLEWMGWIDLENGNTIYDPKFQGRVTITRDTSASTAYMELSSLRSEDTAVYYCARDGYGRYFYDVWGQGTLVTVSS
T2 sequence (VL, as listed by the source limits assumed, chain 2 of 2): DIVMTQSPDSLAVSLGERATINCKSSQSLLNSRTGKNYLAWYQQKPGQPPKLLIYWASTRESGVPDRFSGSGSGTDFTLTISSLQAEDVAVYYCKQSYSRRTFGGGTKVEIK
Procedure: as §1

T1 sequence (VH, as listed by the source limits assumed, chain 1 of 2): as the sequence (VH, as listed by the source limits assumed, chain 1 of 2) above
T1 sequence (VL, as listed by the source limits assumed, chain 2 of 2): as the sequence (VL, as listed by the source limits assumed, chain 2 of 2) above

Row | Binder | Kd (ADI-22523 IgG) | Kd (ADI-22523 Fab)
1 | ADI-34139 (antibody, V domains shown, anti-ID IgG) VH: EVQLLESGGGLVQPGGSLRLSCAASGFTFSSYAMSWVRQAPGKGLEWVSTISGSGGSTYYADSVKGRFTISRDNSKNTLYLQMNSLRAEDTAVYYCARLGGRRGSGSSYYYYYGMDVWGQGTTVTVSS VL: not shown | 2.99 nM | 12.5 nM
2 | ADI-34140 (antibody, V domains shown, anti-ID IgG) VH: EVQLLESGGGLVQPGGSLRLSCAASGFTFSSYAMSWVRQAPGKGLEWVSTISGSGGSTYYADSVKGRFTISRDNSKNTLYLQMNSLRAEDTAVYYCARLGGRRGSGSSYYYYYGMDVWGQGTTVTVSS VL: not shown | 2.9 nM | 18.9 nM
